Experiment [1] deals with hnRNPU (UniProt Q00839). The experiment in a line: anti-Flag co-IP, hnRNPU immunoblot. Particulars: reference: wild type; sites S83,S85.
For experiment [2], the target named is hnRNPU (UniProt Q00839). The experiment in a line: Flag-hnRNPU co-IP, HA-FOXN3 immunoblot. Particulars: reference: WT FOXN3 with HA-p38; sites S83,S85.

Turning to FOXN3 (from UniProt O00409) S83,85A, in the experiment with hnRNPU [1], the “binding against the reference” value is “stronger”.

As to “FOXN3 (from UniProt O00409) S83,85A with HA-p38”, the “binding against the reference” value with hnRNPU [2] is on record as “stronger”.

Source of the values: article PMC10018351.
